US20260055194A1

What was measured:
[1] = target: human CI-M6PR on K562 cells (human) (UniProt P11717); assay: flow cytometry, intracellular stain (fixed, permeabilized), wild type K562 cells, Alexa 647
[2] = target: human CI-M6PR on K562 cells (human) (UniProt P11717); assay: flow cytometry dot plot, cell surface stain, wild type K562 cells [Cont. 1]
[3] = target: human CI-M6PR on K562 cells (human) (UniProt P11717); assay: flow cytometry, cell surface stain, wild type K562 cells, Alexa 647
[4] = target: human CI-M6PR on K562 cells (human) (UniProt P11717); assay: flow cytometry, intracellular stain (fixed, permeabilized), M6PR-KO K562 cells, Alexa 647
[5] = target: human CI-M6PR on K562 cells (human) (UniProt P11717); assay: flow cytometry dot plot, intracellular stain, wild type K562 cells [Cont. 1]
[6] = target: human CI-M6PR on K562 cells (human) (UniProt P11717); assay: flow cytometry, cell surface stain, M6PR-KO K562 cells, Alexa 647
[7] = target: human CI-M6PR on K562 cells (human) (UniProt P11717); assay: flow cytometry dot plot, intracellular stain, M6PR-KO K562 cells [Cont. 2]
[8] = target: human CI-M6PR on K562 cells (human) (UniProt P11717); assay: flow cytometry dot plot, cell surface stain, M6PR-KO K562 cells [Cont. 2]
[9] = target: human CI-M6PR on K562 cells (human) (UniProt P11717); assay: cell-based or functional assay

Chain of human CI-M6PR on K562 cells (human) (P11717 41-2491): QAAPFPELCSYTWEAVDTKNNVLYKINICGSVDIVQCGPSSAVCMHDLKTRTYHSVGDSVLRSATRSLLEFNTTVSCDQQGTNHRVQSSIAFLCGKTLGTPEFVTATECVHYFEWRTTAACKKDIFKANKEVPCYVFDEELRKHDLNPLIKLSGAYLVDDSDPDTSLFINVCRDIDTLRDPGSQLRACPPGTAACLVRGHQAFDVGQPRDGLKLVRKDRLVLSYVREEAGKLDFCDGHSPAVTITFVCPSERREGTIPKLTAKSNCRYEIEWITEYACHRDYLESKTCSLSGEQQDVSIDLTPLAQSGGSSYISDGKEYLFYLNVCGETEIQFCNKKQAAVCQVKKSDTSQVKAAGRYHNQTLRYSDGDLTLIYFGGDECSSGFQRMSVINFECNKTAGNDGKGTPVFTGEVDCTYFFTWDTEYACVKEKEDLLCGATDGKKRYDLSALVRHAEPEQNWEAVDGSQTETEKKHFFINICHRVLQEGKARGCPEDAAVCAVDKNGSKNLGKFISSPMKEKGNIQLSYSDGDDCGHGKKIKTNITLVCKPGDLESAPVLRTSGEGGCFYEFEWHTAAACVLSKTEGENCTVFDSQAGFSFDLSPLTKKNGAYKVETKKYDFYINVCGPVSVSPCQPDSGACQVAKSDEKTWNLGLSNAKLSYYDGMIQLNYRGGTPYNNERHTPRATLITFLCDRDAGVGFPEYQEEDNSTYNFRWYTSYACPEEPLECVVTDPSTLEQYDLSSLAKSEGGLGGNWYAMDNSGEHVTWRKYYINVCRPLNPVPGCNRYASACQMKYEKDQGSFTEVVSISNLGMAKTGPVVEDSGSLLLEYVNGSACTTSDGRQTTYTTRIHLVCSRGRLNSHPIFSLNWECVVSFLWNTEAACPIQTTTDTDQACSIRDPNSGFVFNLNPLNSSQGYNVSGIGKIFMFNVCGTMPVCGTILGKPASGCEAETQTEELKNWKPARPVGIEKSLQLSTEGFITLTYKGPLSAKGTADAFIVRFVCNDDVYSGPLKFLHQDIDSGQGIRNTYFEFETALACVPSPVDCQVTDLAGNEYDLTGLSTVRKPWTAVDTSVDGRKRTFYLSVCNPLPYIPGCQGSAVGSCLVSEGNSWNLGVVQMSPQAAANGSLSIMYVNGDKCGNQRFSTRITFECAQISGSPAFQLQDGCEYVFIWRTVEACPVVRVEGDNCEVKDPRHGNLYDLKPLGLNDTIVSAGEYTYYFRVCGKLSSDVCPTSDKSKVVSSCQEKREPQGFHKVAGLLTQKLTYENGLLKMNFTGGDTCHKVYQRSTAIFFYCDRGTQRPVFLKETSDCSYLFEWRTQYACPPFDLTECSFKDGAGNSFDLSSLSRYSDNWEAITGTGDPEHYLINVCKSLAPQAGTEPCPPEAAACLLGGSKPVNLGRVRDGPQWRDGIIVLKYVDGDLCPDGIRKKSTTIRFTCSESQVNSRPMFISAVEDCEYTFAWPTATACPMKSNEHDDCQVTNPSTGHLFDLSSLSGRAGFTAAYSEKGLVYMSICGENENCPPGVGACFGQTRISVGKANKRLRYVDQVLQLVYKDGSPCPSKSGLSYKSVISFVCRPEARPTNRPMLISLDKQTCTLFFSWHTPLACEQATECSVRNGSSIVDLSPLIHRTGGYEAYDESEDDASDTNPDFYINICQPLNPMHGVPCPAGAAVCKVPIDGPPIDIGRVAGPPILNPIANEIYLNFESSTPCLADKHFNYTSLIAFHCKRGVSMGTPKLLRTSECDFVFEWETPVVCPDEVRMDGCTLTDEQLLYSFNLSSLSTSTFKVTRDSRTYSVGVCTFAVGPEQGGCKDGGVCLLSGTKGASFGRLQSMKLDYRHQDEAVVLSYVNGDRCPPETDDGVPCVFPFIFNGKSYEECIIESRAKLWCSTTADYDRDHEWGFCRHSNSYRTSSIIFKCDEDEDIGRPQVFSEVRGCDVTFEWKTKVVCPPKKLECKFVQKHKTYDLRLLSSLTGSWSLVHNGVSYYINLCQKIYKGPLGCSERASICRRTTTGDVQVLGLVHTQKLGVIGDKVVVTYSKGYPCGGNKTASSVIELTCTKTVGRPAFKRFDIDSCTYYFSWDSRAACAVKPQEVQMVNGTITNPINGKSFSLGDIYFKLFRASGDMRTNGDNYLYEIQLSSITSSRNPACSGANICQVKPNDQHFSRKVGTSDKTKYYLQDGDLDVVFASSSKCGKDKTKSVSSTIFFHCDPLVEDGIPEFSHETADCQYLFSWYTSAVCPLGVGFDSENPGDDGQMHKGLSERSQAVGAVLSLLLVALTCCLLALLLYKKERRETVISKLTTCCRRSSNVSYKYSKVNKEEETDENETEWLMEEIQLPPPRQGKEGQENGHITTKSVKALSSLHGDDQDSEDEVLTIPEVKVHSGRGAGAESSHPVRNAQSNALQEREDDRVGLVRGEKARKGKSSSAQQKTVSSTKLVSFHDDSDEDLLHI
Chain of KLH-IGF2 (P01344 25-91): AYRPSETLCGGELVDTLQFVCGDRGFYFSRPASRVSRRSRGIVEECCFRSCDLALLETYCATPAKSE

Substance	Median : FL18-A [1]	Q1 (events above the Alexa 647 gate, below the FITC gate) [2]	Median : FL18-A [3]	Median : FL18-A on M6PR-KO K562 cells (target knocked out, control) [4]	Q1 (events above the Alexa 647 gate, below the FITC gate) [5]	Median : FL18-A on M6PR-KO K562 cells (target knocked out, control) [6]	Q1 on M6PR-KO K562 cells (target knocked out, control) [7] [%]	Q1 on M6PR-KO K562 cells (target knocked out, control) [8] [%]	Uptake pHrodo (MFI) [9] [MFI]
IgG1-647 (antibody)	48.4	0.39	15.7	35.3	0.48	14.9	0.39	1.47	
KLH-IGF2 (from UniProt P01344 25-91)									210000
MEM-238-647 (antibody)	3630	99.2	1280	220	99.5	27.7	86.8	13.1	
